Laboratory results taken from FireProtDB (doi:10.1016/j.jmb.2010.11.028).

B1: Alpha-tocopherol transfer protein, P49638 (parent)
chain: MAEARSQPSAGPQLNALPDHSPLLQPGLAALRRRAREAGVPLAPLPLTDSFLLRFLRARDFDLDLAWRLLKNYYKWRAECPEISADLHPRSIIGLLKAGYHGVLRSRDPTGSKVLIYRIAHWDPKVFTAYDVFRVSLITSELIVQEVETQRNGIKAIFDLEGWQFSHAFQITPSVAKKIAAVLTDSFPLKVRGIHLINEPVIFHAVFSMIKPFLTEKIKERIHMHGNNYKQSLLQHFPDILPLEYGGEEFSMEDICQEWTNFIMKSEDYLSSISESIQ

Variants of: B1
Conditions: Homo sapiens; pH 7.4; Thermal; Fluorescence; Tris 50mM; structure 1R5L; whole UniProt chain shown

MAEARSQPSAGPQLNALPDHSPLLQPGLAALRRRAREAGVPLAPLPLTDSFLLRFLRARDFDLDLAWRLLKNYYKWRAECPEISADLHPRSIIGLLKAGYHGVLRSRDPTGSKVLIYRIAHWDPKVFTAYDVFRVSLITSELIVQEVETQRNGIKAIFDLEGWQASHAFQITPSVAKKIAAVLTDSFPLKVRGIHLINEPVIFHAVFSMIKPFLTEKIKERIHMHGNNYKQSLLQHFPDILPLEYGGEEFSMEDICQEWTNFIMKSEDYLSSISESIQ [F165A] and MAEARSQPSAGPQLNALPDHSPLLQPGLAALRRRAREAGVPLAPLPLTDSFLLRFLRARDFDLDLAWRLLKNYYKWRAECPEISADLHPRSIIGLLKAGYHGVLRSRDPTGSKVLIYRIAHWDPKVFTAYDVFRVSLITSELIVQEVETQRNGIKAIFDLEGWQDSHAFQITPSVAKKIAAVLTDSFPLKVRGIHLINEPVIFHAVFSMIKPFLTEKIKERIHMHGNNYKQSLLQHFPDILPLEYGGEEFSMEDICQEWTNFIMKSEDYLSSISESIQ [F165D] are the same in Tm: 82.4 °C for the first, 82.4 °C for the second.

First: MAEARSQPSAGPQLNALPDHSPLLQPGLAALRRRAREAGVPLAPLPLTDSFLLRFLRARDFDLDLAWRLLKNYYKWRAECPEISADLHPRSIIGLLKAGYHGVLRSRDPTGSKVLIYRIAHWDPKVFTAYDVFRVSLITSELIVQEVETQRNGIKAIFDLEGWQFSHAFQITPSVAKKIAAVLTDSFPLKVRGIHLINEPVIFHAVFSMIKPFLTEKIKERIHMHGNNYKQSLLQHFPDILPLEYGGEEFSMEDICQEWTNFIDKSEDYLSSISESIQ [M264D]
Second: MAEARSQPSAGPQLNALPDHSPLLQPGLAALRRRAREAGVPLAPLPLTDSFLLRFLRARDFDLDLAWRLLKNYYKWRAECPEISADLHPRSIIGLLKAGYHGVLRSRDPTGSKVLIYRIAHWDPKVFTAYDVFRVSLITSELIVQEVETQRNGIKAIFDLEGWQFSHAFQITPSVAKKIAAVLTDSFPLKVRGIHLINEPVIFHADFSMIKPFLTEKIKERIHMHGNNYKQSLLQHFPDILPLEYGGEEFSMEDICQEWTNFIMKSEDYLSSISESIQ [V206D]
The Tm of the first is lower: 68.8 °C for the first, 76 °C for the second.

First: MAEARSQPSAGPQLNALPDHSPLLQPGLAALRRRAREAGVPLAPLPLTDSFLLRFLRARDFDLDLAWRLLKNYYKWRAECPEISADLHPRSIIGLLKAGYHGVLRSRDPTGSKVLIYRIAHWDPKVFTAYDVFRVSLITSELIVQEVETQRNGIKAIFDLEGWQFSHAFQITPSVAKKIAAVLTDSFPLKVRGIHLINEPVIFHAAFSMIKPFLTEKIKERIHMHGNNYKQSLLQHFPDILPLEYGGEEFSMEDICQEWTNFIMKSEDYLSSISESIQ [V206A]
Second: MAEARSQPSAGPQLNALPDHSPLLQPGLAALRRRAREAGVPLAPLPLTDSFLLRFLRARDFDLDLAWRLLKNYYKWRAECPEISADLHPRSIIGLLKAGYHGVLRSRDPTGSKVLIYRIAHWDPKVFTAYDVFRVSLITSELIVQEVETQRNGIKAIFDLEGWQFSHAAQITPSVAKKIAAVLTDSFPLKVRGIHLINEPVIFHAVFSMIKPFLTEKIKERIHMHGNNYKQSLLQHFPDILPLEYGGEEFSMEDICQEWTNFIMKSEDYLSSISESIQ [F169A]
The Tm of the first is higher: 78.2 °C for the first, 75.3 °C for the second.

Going from MAEARSQPSAGPQLNALPDHSPLLQPGLAALRRRAREAGVPLAPLPLTDSFLLRFLRARDFDLDLAWRLLKNYYKWRAECPEISADLHPRSIIGLLKAGYHGVLRSRDPTGSKVLIYRIAHWDPKVFTAYDVFRVSLITSELIVQEVETQRNGIKAIFDLEGWQFSHAFQITPSVAKKIAAVLTDSFPLKVRGIHLINEPVAFHAVFSMIKPFLTEKIKERIHMHGNNYKQSLLQHFPDILPLEYGGEEFSMEDICQEWTNFIMKSEDYLSSISESIQ [I202A] to MAEARSQPSAGPQLNALPDHSPLLQPGLAALRRRAREAGVPLAPLPLTDSFLLRFLRARDFDLDLAWRLLKNYYKWRAECPEISADLHPRSIIGLLKAGYHGVLRSRDPTGSKVLIYRIAHWDPKVFTAYDVFRVSLITSELIVQEVETQRNGIKAIFDLEGWQFSHAFQITPSVAKKIAAVLTDSFPLKVRGIHLINEPVDFHAVFSMIKPFLTEKIKERIHMHGNNYKQSLLQHFPDILPLEYGGEEFSMEDICQEWTNFIMKSEDYLSSISESIQ [I202D], the Tm falls from 74.9 °C to 73.6 °C.

First: MAEARSQPSAGPQLNALPDHSPLLQPGLAALRRRAREAGVPLAPLPLTDSFLLRFLRARDFDLDLAWRLLKNYYKWRAECPEISADLHPRSIIGLLKAGYHGVLRSRDPTGSKVLIYRIAHWDPKVFTAYDVFRVSLITSELIVQEVETQRNGIKAIFDLEGWQFSHAFQITPSVAKKIAAVLTDSFPLKVRGIHLINEPVIFHAVFSAIKPFLTEKIKERIHMHGNNYKQSLLQHFPDILPLEYGGEEFSMEDICQEWTNFIMKSEDYLSSISESIQ [M209A]
Second: MAEARSQPSAGPQLNALPDHSPLLQPGLAALRRRAREAGVPLAPLPLTDSFLLRFLRARDFDLDLAWRLLKNYYKWRAECPEISADLHPRSIIGLLKAGYHGVLRSRDPTGSKVLIYRIAHWDPKVFTAYDVFRVSLITSELIVQEVETQRNGIKAIFDLEGWQFSHAFQITPSVAKKIAAVLTDSFPLKVRGIHLINEPVIFHAVFSDIKPFLTEKIKERIHMHGNNYKQSLLQHFPDILPLEYGGEEFSMEDICQEWTNFIMKSEDYLSSISESIQ [M209D]
The Tm of the first is higher: 82.8 °C for the first, 79.5 °C for the second.
